Laboratory results taken from publication PMC5414174, “DNA replication licensing factor Cdc6 and Plk4 kinase antagonistically regulate centrosome duplication via Sas-6” (Nature Communications, 2017).

B1: GFP-tagged Cdc6 WT [human] / Myc-tagged Sas-6 [human] (parent)
chain 1: MPQTRSQAQATISFPKRKLSRALNKAKNSSDAKLEPTNVQTVTCSPRVKALPLSPRKRLGDDNLCNTPHLPPCSPPKQGKKENGPPHSHTLKGRRLVFDNQLTIKSPSKRELAKVHQNKILSSVRKSQEITTNSEQRCPLKKESACVRLFKQEGTCYQQAKLVLNTAVPDRLPAREREMDVIRNFLREHICGKKAGSLYLSGAPGTGKTACLSRILQDLKKELKGFKTIMLNCMSLRTAQAVFPAIAQEICQEEVSRPAGKDMMRKLEKHMTAEKGPMIVLVLDEMDQLDSKGQDVLYTLFEWPWLSNSHLVLIGIANTLDLTDRILPRLQAREKCKPQLLNFPPYTRNQIVTILQDRLNQVSRDQVLDNAAVQFCARKVSAVSGDVRKALDVCRRAIEIVESDVKSQTILKPLSECKSPSEPLIPKRVGLIHISQVISEVDGNRMTLSQEGAQDSFPLQQKILVCSLMLLIRQLKIKEVTLGKLYEAYSKVCRKQQVAAVDQSECLSLSGLLEARGILGLKRNKETRLTKVFFKIEEKEIEHALKDKALIGNILATGLP
chain 2: MSQVLFHQLVPLQVKCKDCEERRVSIRMSIELQSVSNPVHRKDLVIRLTDDTDPFFLYNLVISEEDFQSLKFQQGLLVDFLAFPQKFIDLLQQCTQEHAKEIPRFLLQLVSPAAILDNSPAFLNVVETNPFKHLTHLSLKLLPGNDVEIKKFLAGCLKCSKEEKLSLMQSLDDATKQLDFTRKTLAEKKQELDKLRNEWASHTAALTNKHSQELTNEKEKALQAQVQYQQQHEQQKKDLEILHQQNIHQLQNRLSELEAANKDLTERKYKGDSTIRELKAKLSGVEEELQRTKQEVLSLRRENSTLDVECHEKEKHVNQLQTKVAVLEQEIKDKDQLVLRTKEAFDTIQEQKVVLEENGEKNQVQLGKLEATIKSLSAELLKANEIIKKLQGDLKTLMGKLKLKNTVTIQQEKLLAEKEEKLQKEQKELQDVGQSLRIKEQEVCKLQEQLEATVKKLEESKQLLKNNEKLITWLNKELNENQLVRKQDVLGPSTTPPAHSSSNTIRSGISPNLNVVDGRLTYPTCGIGYPVSSAFAFQNTFPHSISAKNTSHPGSGTKVQFNLQFTKPNASLGDVQSGATISMPCSTDKENGENVGLESKYLKKREDSIPLRGLSQNLFSNSDHQRDGTLGALHTSSKPTALPSASSAYFPGQLPNS

Variants of: B1
Test: co-immunoprecipitation (anti-GFP IP, western blot quantified by ImageJ)
Details: with Myc-tagged Sas-6 [human]; HEK293 cells co-transfected; three independent experiments; means ± s.d.; read off a plot

ratio to parent	Variant
1.7	chain 1 MPQTRSQAQATISFPKRKLSRALNKAKNSADAKLEPTNVQTVTCSPRVKALPLSPRKRLGDDNLCNTPHLPPCSPPKQGKKENGPPHSHTLKGRRLVFDNQLTIKSPSKRELAKVHQNKILSSVRKSQEITTNSEQRCPLKKESACVRLFKQEGTCYQQAKLVLNTAVPDRLPAREREMDVIRNFLREHICGKKAGSLYLSGAPGTGKTACLSRILQDLKKELKGFKTIMLNCMSLRTAQAVFPAIAQEICQEEVSRPAGKDMMRKLEKHMTAEKGPMIVLVLDEMDQLDSKGQDVLYTLFEWPWLSNSHLVLIGIANTLDLTDRILPRLQAREKCKPQLLNFPPYTRNQIVTILQDRLNQVSRDQVLDNAAVQFCARKVSAVSGDVRKALDVCRRAIEIVESDVKSQTILKPLSECKSPSEPLIPKRVGLIHISQVISEVDGNRMTLSQEGAQDSFPLQQKILVCSLMLLIRQLKIKEVTLGKLYEAYSKVCRKQQVAAVDQSECLSLSGLLEARGILGLKRNKEARLTKVFFKIEEKEIEHALKDKALIGNILATGLP [chain 1 S30A T527A]
0.42	chain 1 MPQTRSQAQATISFPKRKLSRALNKAKNSDDAKLEPTNVQTVTCSPRVKALPLSPRKRLGDDNLCNTPHLPPCSPPKQGKKENGPPHSHTLKGRRLVFDNQLTIKSPSKRELAKVHQNKILSSVRKSQEITTNSEQRCPLKKESACVRLFKQEGTCYQQAKLVLNTAVPDRLPAREREMDVIRNFLREHICGKKAGSLYLSGAPGTGKTACLSRILQDLKKELKGFKTIMLNCMSLRTAQAVFPAIAQEICQEEVSRPAGKDMMRKLEKHMTAEKGPMIVLVLDEMDQLDSKGQDVLYTLFEWPWLSNSHLVLIGIANTLDLTDRILPRLQAREKCKPQLLNFPPYTRNQIVTILQDRLNQVSRDQVLDNAAVQFCARKVSAVSGDVRKALDVCRRAIEIVESDVKSQTILKPLSECKSPSEPLIPKRVGLIHISQVISEVDGNRMTLSQEGAQDSFPLQQKILVCSLMLLIRQLKIKEVTLGKLYEAYSKVCRKQQVAAVDQSECLSLSGLLEARGILGLKRNKEDRLTKVFFKIEEKEIEHALKDKALIGNILATGLP [chain 1 S30D T527D]
